Measurements: PMC4200255

Biological target: recombinant purified protein HSP70-1A (UniProt P0DMV8)
UniProt P0DMV8, sequence (P0DMV8 whole entry): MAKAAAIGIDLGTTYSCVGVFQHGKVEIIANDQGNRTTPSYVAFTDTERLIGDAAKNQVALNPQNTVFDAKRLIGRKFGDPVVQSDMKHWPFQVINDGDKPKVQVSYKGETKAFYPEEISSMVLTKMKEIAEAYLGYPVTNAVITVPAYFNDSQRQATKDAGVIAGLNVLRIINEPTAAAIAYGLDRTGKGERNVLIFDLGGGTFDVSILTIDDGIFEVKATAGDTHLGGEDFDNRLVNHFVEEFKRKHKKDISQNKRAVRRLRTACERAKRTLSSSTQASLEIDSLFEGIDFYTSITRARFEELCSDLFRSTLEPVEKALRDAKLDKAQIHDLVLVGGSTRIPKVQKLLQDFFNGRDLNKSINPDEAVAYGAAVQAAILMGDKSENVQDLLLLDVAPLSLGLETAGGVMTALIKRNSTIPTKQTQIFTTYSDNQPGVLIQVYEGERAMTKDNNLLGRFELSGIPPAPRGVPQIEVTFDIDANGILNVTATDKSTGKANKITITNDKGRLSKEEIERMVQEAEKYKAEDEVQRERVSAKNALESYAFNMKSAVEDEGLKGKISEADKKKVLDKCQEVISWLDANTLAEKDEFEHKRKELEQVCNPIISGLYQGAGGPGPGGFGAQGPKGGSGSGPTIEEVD

| stimulation of the ATPase activity of 0.7 μM HSP70 by 500 μM peptide (malachite green, 37 °C) [fold] | Binder |
| --- | --- |
| 4 | RLIITPGTFKERIIKSITPETPTE [24-mer peptide of the serotonin transporter C terminus] |
| 2 | TPGTFKERIIKSITPETPTE [20-mer peptide of the serotonin transporter C terminus (lacks the first 4 amino acids RLII)] |
